From publication PMC9068813, “Enhancer RNAs stimulate Pol II pause release by harnessing multivalent interactions to NELF”

Experiments:
Details in all cases: protein: recombinant; tags: His-tag (Ni-NTA purified); copies: 1;1;1;1
[1] = target: NELF double mutant (patch + ΔRRM) (UniProt Q9H3P2;Q8WX92;Q8IXH7;P18615 1-528;1-628;1-590;1-261+333-380, R291Q;K315M;K371M;K372M;K374M;K384M;K388M;R419Q;R506Q;internal_change); experiment: EMSA (NELF release from PEC); large molar excess; 20 mM Na-HEPES pH 7.4, 100 mM NaCl, 25 mM KCl, 3 mM MgCl2, 2 mM DTT; assembly 30 °C, eRNA incubation 15-20 min at room temperature; 3.5% native PAGE 0.5x TBE at 4 °C; PEC about 0.1 µM NELF 0.15 µM
[2] = target: T1, NELF-EΔRRM complex (NELFΔRRM) (UniProt Q9H3P2;Q8WX92;Q8IXH7;P18615 1-528;1-628;1-590;1-261+333-380, internal_change); experiment: EMSA (NELF release from PEC); apparent Kd; NELF in PEC on N1; 20 mM Na-HEPES pH 7.4, 100 mM NaCl, 25 mM KCl, 3 mM MgCl2, 2 mM DTT; assembly 30 °C, eRNA incubation 15-20 min at room temperature; 3.5% native PAGE 0.5x TBE at 4 °C; PEC about 0.1 µM NELF 0.15 µM
[3] = target: T1, NELF-EΔRRM complex (NELFΔRRM); experiment: EMSA (NELF release from PEC); release not abolished; 20 mM Na-HEPES pH 7.4, 100 mM NaCl, 25 mM KCl, 3 mM MgCl2, 2 mM DTT; assembly 30 °C, eRNA incubation 15-20 min at room temperature; 3.5% native PAGE 0.5x TBE at 4 °C; PEC about 0.1 µM NELF 0.15 µM

T1 sequence (Q9H3P2 whole entry, stated change not applied, chain 1 of 4): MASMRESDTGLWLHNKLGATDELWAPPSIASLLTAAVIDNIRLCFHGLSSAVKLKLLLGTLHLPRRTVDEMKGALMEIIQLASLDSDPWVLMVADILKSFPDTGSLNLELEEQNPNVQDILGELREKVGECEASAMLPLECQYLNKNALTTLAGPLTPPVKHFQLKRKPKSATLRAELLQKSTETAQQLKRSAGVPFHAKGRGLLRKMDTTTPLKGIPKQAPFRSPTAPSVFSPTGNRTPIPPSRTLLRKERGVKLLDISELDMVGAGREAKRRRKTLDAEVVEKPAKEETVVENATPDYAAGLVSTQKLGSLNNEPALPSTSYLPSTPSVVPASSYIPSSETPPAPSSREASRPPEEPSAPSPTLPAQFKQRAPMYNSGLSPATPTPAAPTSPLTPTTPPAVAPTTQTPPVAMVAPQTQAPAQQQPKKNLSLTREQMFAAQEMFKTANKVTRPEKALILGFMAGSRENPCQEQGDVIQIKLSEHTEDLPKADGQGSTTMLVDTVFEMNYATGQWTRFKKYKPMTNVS
T1 sequence (Q8WX92 other isoform, or with tags, fused parts or gaps | mutant, chain 2 of 4): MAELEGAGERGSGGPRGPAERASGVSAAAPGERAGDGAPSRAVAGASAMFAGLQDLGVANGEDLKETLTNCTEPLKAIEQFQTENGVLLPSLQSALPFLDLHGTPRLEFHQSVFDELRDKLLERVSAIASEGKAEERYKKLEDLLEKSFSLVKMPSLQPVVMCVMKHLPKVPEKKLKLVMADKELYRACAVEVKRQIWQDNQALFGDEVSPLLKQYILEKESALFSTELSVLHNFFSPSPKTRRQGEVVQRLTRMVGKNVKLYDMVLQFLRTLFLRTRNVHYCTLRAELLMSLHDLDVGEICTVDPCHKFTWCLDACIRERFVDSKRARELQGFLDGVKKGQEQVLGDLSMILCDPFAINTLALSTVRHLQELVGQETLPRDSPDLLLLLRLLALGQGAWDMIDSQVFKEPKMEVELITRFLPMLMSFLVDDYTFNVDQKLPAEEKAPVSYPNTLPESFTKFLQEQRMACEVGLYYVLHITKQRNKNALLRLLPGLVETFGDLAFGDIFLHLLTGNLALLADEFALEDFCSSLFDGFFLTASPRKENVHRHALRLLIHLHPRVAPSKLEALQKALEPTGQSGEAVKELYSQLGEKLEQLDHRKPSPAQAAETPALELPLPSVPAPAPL
T1 sequence (Q8IXH7 whole entry, stated change not applied, chain 3 of 4): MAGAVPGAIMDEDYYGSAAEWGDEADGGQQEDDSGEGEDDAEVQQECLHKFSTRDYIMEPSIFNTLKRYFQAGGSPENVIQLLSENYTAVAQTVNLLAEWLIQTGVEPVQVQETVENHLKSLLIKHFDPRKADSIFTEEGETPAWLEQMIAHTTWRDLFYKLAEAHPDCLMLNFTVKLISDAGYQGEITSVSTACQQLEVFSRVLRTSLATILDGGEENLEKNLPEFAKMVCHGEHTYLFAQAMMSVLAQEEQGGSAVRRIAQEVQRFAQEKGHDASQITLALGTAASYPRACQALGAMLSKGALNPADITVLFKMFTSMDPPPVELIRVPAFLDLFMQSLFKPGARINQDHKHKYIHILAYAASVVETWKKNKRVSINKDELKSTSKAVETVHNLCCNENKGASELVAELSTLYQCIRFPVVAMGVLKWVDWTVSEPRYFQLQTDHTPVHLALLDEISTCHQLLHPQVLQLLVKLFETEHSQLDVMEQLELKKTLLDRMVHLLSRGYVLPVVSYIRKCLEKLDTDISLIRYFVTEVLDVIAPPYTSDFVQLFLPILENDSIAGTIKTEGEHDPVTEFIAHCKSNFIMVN
T1 sequence (P18615 other isoform, or with tags, fused parts or gaps | mutant, chain 4 of 4): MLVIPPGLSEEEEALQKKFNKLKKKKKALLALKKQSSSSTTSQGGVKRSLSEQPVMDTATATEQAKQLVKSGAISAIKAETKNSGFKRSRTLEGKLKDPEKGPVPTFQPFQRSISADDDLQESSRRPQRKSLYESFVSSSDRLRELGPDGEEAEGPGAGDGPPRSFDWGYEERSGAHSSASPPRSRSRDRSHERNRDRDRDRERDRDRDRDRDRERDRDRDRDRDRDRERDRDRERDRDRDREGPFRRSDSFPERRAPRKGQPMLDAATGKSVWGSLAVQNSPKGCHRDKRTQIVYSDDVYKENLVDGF
Sequence of NELF double mutant (patch + ΔRRM) (Q9H3P2 whole entry, stated change not applied, chain 1 of 4): as the sequence (Q9H3P2 whole entry, stated change not applied, chain 1 of 4) above
Sequence of NELF double mutant (patch + ΔRRM) (Q8WX92 other isoform, or with tags, fused parts or gaps with the stated changes, chain 2 of 4): as the sequence (Q8WX92 other isoform, or with tags, fused parts or gaps | mutant, chain 2 of 4) above
Sequence of NELF double mutant (patch + ΔRRM) (Q8IXH7 whole entry R291Q/K315M/K371M/K372M/K374M/K384M/K388M/R419Q/R506Q, chain 3 of 4): as the sequence (Q8IXH7 whole entry, stated change not applied, chain 3 of 4) above, with R291Q, K315M, K371M, K372M, K374M, K384M, K388M, R419Q, R506Q counted along it
Sequence of NELF double mutant (patch + ΔRRM) (P18615 other isoform, or with tags, fused parts or gaps with the stated changes, chain 4 of 4): as the sequence (P18615 other isoform, or with tags, fused parts or gaps | mutant, chain 4 of 4) above

B1: Nr4a1-(a) eRNA 1-200 (structured_RNA)
RNA: GCGGUGAGAGUGAUUUUGUAACUCUAAAGUUACAGAGGGUUUUGUUGUGUUUUUAAUCAAGAGCCCUGGUUUUGAUUUGUGGGUAAUCUUUCUUUAAACCUCGCCCAUUUCCGGCCUGGUGACCUGGGCCACUUUCUCAUGUUGACCCAGAUGAUCCUCAGUAGCAAGAACAAAAGGACAACAGAUGUGGAAACACUCAA
- binding result [1]: no binding

B2: Arc eRNA 1-100 (structured_RNA)
RNA: AAAACACAGCCGCCAGGGUGGGGGUGGCAGCCUUGAACGCCACCCUCUAACUGGCAUGGGCAUCUGAACUCUCAGCUCUGGGGGUGUCUCAUCGGCCAGC
- Kd [2]: 7.8 µM

B3: Nr4a1-(a) eRNA 1-100 (structured_RNA)
RNA: GCGGUGAGAGUGAUUUUGUAACUCUAAAGUUACAGAGGGUUUUGUUGUGUUUUUAAUCAAGAGCCCUGGUUUUGAUUUGUGGGUAAUCUUUCUUUAAACC
- binding result [3]: binds

B4: Nr4a1-(b) eRNA 1-200 (structured_RNA)
RNA: AGUAGGGGCAUGGCUCGCCCGAGGCUCGGUGCUGCCCCGCCGCCCGCCGCGUUCCUUCCGGCUUGGUGUUCCGGUGGCGGGACCAGGGAAGGGAAGCUCGGGCCAAAUCCGGUCUCGGGCGAGGUGACAGAAAUUUGGAAUCUGACACCGGAGGAUGGCUGAGCUCCGGCUCCUCUGGGAGUGCAAUUACGGACUUCGCA
- binding result [1]: no binding

B5: Arc eRNA 1-200 (structured_RNA)
RNA: AAAACACAGCCGCCAGGGUGGGGGUGGCAGCCUUGAACGCCACCCUCUAACUGGCAUGGGCAUCUGAACUCUCAGCUCUGGGGGUGUCUCAUCGGCCAGCUGGCAGUAGCCCCCCCAACCCCACCCCUGAUGGAGAACUGCUCCUGUAUGAUCCAGCCCAGUGGGCGCACAGGGAGUUGGUAGGUGGGCACUCAGACUGG
- binding result [1]: no binding
- Kd [2]: 0.33 µM
